Data: paper PMC4757827 (2016)

Biological target: recombinant importin α1 (construct not stated for this experiment) (Homo sapiens (Human), UniProt P52292)
Assay: ELISA

binding result: no binding
B1: IFN-γ (recombinant) (protein)
chain: QDPYVKEAENLKKYFNAGHSDVADNGTLFLGILKNWKEESDRKIMQSQIVSFYFKLFKNFKDDQSIQKSVETIKEDMNVKFFNSNKKKRDDFEKLTNYSVTDLNVQRKAIHELIQVMAELSPAAKTGKRKRSQMLFRG
